Results on two proteins are retold here after patent US20100216853.

Where a chain is given by its changes, count along the chain named. Numbers in names are those of the source.

Data set [1] addresses T1, H4-12(K5X/K12A) peptide.
T1 chain: RGXGGKGLGAGA

Data set [2] has as its target T2, H4-15 histone H4 tail peptide.
T2 chain: GRGKGGKGLGKGGAK

The target of data set [3] is T3, H4-12(K5A/K12A) peptide.
T3 chain: RGAGGKGLGAGA

For data set [4], the target named is T4, H4-15(K5D/K12D) peptide.
T4 chain: GRGDGGKGLGDGGAK

B1: semi-synthetic p300 HAT domain D1625R/D1628R double mutant (protein)
chain: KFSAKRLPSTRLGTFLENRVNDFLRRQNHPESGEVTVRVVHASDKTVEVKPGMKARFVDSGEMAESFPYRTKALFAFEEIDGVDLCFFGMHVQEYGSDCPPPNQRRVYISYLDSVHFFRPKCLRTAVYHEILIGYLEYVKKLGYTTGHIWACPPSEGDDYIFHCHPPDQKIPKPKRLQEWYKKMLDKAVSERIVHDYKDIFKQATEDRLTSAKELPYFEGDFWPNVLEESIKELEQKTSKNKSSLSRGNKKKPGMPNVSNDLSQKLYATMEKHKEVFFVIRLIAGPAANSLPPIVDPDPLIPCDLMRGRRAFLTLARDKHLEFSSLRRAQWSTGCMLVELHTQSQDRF
In the case of B1, in data set [1], the V/K(M^-1s^-1) for D1625R/D1628R worked out at 738 M⁻¹ s⁻¹ and the “loss in V/K against wild-type” value was “the loss of 6-fold in V/K for neutral H4 substrates”. In data set [2], the “Km(µM) for H4-15” value is listed as over 1000; the V/K is 1160 M⁻¹ s⁻¹; the “V/K difference against wild-type” value is “the 22-fold V/K difference between wild-type p300 HAT protein and the D1625R/D1628R mutant for H4-15 substrate”; the “V/K drop against wild-type” value is on record as “a 20-fold drop in V/K”. Moreover, the V/K(M^-1s^-1) for D1625R/D1628R in data set [2] was found to be 1160 M⁻¹ s⁻¹. In addition, in data set [3], the V/K(M^-1s^-1) for D1625R/D1628R is 515 M⁻¹ s⁻¹ and the “loss in V/K against wild-type” value is recorded as “the loss of 6-fold in V/K for neutral H4 substrates”. Besides, in data set [4], the V/K(M^-1s^-1) for D1625R/D1628R turned out to be 422 M⁻¹ s⁻¹ and the “acetyltransferase activity against wild-type” value is “almost equal (within 2-fold) acetyltransferase activity”.

B2: semi-synthetic p300 HAT domain, wild-type (protein)
chain: B1 chain with R307D, R310D
For B2, the Km result in data set [1], in data set [3] and in data set [4] was “Km of these substrates were generally too high to be measured (>1000 µM)” throughout. Moreover, the V/K(M^-1s^-1) for W.T. in data set [1] is 5250 M⁻¹ s⁻¹; in data set [2] it was 25000 M⁻¹ s⁻¹; in data set [3] it was 3820 M⁻¹ s⁻¹; in data set [4] it was 636 M⁻¹ s⁻¹. In addition, the Km(µM) for H4-15 in data set [2] was 164 µM. In addition, in data set [2], the V/K amounted to 25000 ± 1640 M⁻¹ s⁻¹.
